Measurements as given in patent US20110129459A1 (Chugai, published 2011).
Substitutions are numbered along the chain they refer to. Blank lines part the entries; values can stand above or below the binder they belong to.

Tests used:
[1] = biological target: T1, cytoplasmic domain-lacking human NR10 on CHO cells (hNR10-expressing CHO cells) (human, UniProt Q8NI17 20-553); experiment: FMAT competition on hNR10-expressing CHO cells: antibody titrated against FMAT Blue-labeled hIL-31; FL1 = cell-bound labeled hIL-31
T1 construct: also called NR10-expressing cells
T1 sequence: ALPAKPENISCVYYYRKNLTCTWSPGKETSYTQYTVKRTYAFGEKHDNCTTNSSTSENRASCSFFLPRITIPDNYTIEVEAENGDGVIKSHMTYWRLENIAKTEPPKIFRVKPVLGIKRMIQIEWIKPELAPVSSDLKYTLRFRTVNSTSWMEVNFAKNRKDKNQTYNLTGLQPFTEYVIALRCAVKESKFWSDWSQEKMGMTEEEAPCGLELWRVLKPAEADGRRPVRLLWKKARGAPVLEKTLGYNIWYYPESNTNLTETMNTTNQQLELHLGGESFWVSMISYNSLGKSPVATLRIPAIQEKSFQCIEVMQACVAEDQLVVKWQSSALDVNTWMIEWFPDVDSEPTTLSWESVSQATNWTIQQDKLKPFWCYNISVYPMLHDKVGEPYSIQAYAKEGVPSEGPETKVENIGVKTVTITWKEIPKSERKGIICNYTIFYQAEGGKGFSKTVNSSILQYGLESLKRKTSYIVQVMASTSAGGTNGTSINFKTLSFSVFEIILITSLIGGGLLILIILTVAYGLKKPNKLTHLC
Procedure: (§1) Human IL-31 (R&D Systems) was labeled with FMAT Blue Monofunctional Reactive Dye (Applied Biosystems). 100 μl of hIL-31 prepared at 0.5 mg/ml using 50 mM sodium phosphate buffer (pH 8.0) was mixed with 5.25 μl of 25 nmoles FMAT Blue dissolved in DMSO (Junsei). After vortexing, the mixture was allowed to stand at room temperature for 15 minutes. The FMAT Blue-conjugating reaction with hIL-31 was terminated by adding 5 μl of 1 M Tris-HCl (pH 7.4) and 1.1 μl of 10% Tween20, and then FMAT Blue-labeled hIL-31 and unreacted FMAT Blue were separated by gel filtration using Superdex 75 (GE Healthcare, 17-0771-01) column with 0.1% Tween20/PBS developing solution.
NS22 and NA633 (the constant region of each is γ1, κ) were diluted at an appropriate concentration using Assay buffer (10 mM HEPES, 140 mM NaCl, 2.5 mM CaCl₂, 3 mM MgCl₂, 2% FBS, 0.01% NaN₃), and then seven serial dilutions were prepared at a common dilution ratio of 2. The dilutions were added at 40 μl/well to plates (96-Well FMAT Plates; Applied Biosystems). Then, FMAT Blue-labeled hIL-31 was diluted 400 times with Assay buffer and added at 20 μl/well. Finally, cell suspensions adjusted to 2.5×10⁵ cells/ml using Assay buffer were added at 40 μl/well (final 1×10⁴ cells/well). Two hours after addition of cells, the fluorescence (FL1) was determined using the 8200 Cellular Detection System (Applied Biosystems).

[2] = biological target: T1, cytoplasmic domain-lacking human NR10 …; experiment: as above; remark: listed apart in the source
Procedure: as §1
Antibodies were assessed for the activity of inhibiting the IL-31/NR10 binding by using hNR10-expressing CHO cells as described below. The chimeric NS22 antibody and NS22_H0L0 (H chain, H0-SKSC/SEQ ID NO: 54; L chain, L0/SEQ ID NO: 56) were diluted at an appropriate concentration using Assay buffer (10 mM HEPES, 140 mM NaCl, 2.5 mM CaCl₂, 3 mM MgCl₂, 2% FBS, 0.01% NaN₃, pH7.4), and further eight serial dilutions were prepared at a common dilution ration of 2. The dilutions were added at 40 μl/well to plates (96-Well FMAT Plates, Applied Biosystems). Then, FMAT Blue-labeled hIL-31 was diluted 400 times with Assay buffer, and added at 20 μl/well. Finally, a cell suspension adjusted to 2.5×10⁵ cells/ml using Assay buffer was added at 40 μl/well (final 1×10⁴ cells/well). Two hours after addition of cells, the fluorescence (FL1) was measured using the 8200 Cellular Detection System (Applied Biosystems).

[3] = biological target: T1, cytoplasmic domain-lacking human NR10 …; experiment: FMAT competition on hNR10-expressing CHO cells: unlabeled chimeric antibody titrated against 8.8x10^-2 µg/ml FMAT Blue-NS22; FL1 = cell-bound labeled NS22
Procedure: The antibody NS22 purified from a hybridoma culture supernatant was labeled with FMAT Blue (Applied Biosystems, 4328853). 170 μl of NS22 prepared at 1 mg/ml in PBS was mixed with 17 μl of 1 M NaHCO₃ solution and 3.4 μl of FMAT Blue (17 nmoles) dissolved in DMSO. After vortexing, the mixture was allowed to stand at room temperature for 30 minutes. The FMAT Blue conjugating reaction with NS22 was terminated by adding 8 μl of 1 M Tris-HCl (pH 7.4) and 1.9 μl of 1% Tween 20, and then FMAT Blue-labeled NS22 (FMAT Blue-NS22) and unreacted FMAT Blue were separated by gel filtration using Superdex 75 (GE Healthcare, 17-0771-01) column with 0.01% Tween20/PBS developing solution.
Each antibody was examined for inhibition of the binding of the prepared FMAT Blue-NS22 to hNR10-expressing CHO cells (Referential Example 3) using the 8200 Cellular Detection System (Applied Biosystems, 4342920). The chimeric anti-NR10 antibodies (the constant region of each is γ1, κ) were added at various concentrations to each well containing 7500 cells and 8.8×10⁻² μg/ml FMAT Blue-NS22. The cells were allowed to stand in the dark for four hours, and then the fluorescent signal from FMAT Blue bound to the cells was measured. […] The fluorescence value FL1, which represents the binding of FMAT Blue-NS22 to NR10-expressing cells, was reduced with the increase in the concentration of antibody NS22 or NS23.

binding result [1]: binds
B1: chimeric NA633 (human gamma1, kappa) (antibody, V domains shown)
VH: DVQLRESGPGLVKPSQSLSLTCTVTGYSITSDYAWNWIRQFPGNKLEWMGYISYSGSTSYNPSLKSRVSITRDTSKNQFFLQLNSVTTEDTATYYCAPMITTDWFFDVWGAGTTVTVSS
VL: DIVMTQSPATLSVTPGDRVSLSCRASHDISDFLHWYQQKSHESPRLLIKYASQSISGIPSRFSGSGSGSDFTLSINSVEPEDVGVYYCQNGHSFPWTFGGGTKLEIK
notes: Mouse variable regions with human constant regions (H chain gamma1)

IC50 (read off the curve) [2]: ~0.1 µg/mL | IC50 (read off the curve) [3]: ~0.5 µg/mL
B2: chimeric NS22 (human gamma1, kappa) (antibody, V domains shown)
VH: EVQLQQSGPELVKPGASMKISCKASGYSFTGYIMNWVKQSHGKNLEWIGLINPYNGGTSYNQKFKGKATLTVDKSSSTAYMELLSLTSEDSAVYYCARDGYDDGPYTMDYWGQGTSVTVSS
VL: DIQMTQSPASLSASVGETVTITCRTSENIYSFLAWYQQKQGKSPHLLVYNAKTLAKGVPSRFSGSGSGTQFSLKINSLQPEDFGSYFCQHHYESPLTFGGGTKLEIK
notes: also called chimeric NS22 antibody; the chimeric antibody

IC50 (read off the curve) [3]: ~0.5 µg/mL
B3: chimeric NS23 (human gamma1, kappa) (antibody, V domains shown)
VH: B2 VH with A16T, T58A, S59E, G66D, L70F
VL: B2 VL with I21F, T25A, S26N, F32Y, H45Q, K56E, F87Y, E93G, S94T, L96P
